The values that follow come from PMC10943277 (The Journal of Cell Biology, 2024).

This test addresses T1, Sly1 (wild-type) (S. cerevisiae, UniProt P22213 1-666).
T1 sequence: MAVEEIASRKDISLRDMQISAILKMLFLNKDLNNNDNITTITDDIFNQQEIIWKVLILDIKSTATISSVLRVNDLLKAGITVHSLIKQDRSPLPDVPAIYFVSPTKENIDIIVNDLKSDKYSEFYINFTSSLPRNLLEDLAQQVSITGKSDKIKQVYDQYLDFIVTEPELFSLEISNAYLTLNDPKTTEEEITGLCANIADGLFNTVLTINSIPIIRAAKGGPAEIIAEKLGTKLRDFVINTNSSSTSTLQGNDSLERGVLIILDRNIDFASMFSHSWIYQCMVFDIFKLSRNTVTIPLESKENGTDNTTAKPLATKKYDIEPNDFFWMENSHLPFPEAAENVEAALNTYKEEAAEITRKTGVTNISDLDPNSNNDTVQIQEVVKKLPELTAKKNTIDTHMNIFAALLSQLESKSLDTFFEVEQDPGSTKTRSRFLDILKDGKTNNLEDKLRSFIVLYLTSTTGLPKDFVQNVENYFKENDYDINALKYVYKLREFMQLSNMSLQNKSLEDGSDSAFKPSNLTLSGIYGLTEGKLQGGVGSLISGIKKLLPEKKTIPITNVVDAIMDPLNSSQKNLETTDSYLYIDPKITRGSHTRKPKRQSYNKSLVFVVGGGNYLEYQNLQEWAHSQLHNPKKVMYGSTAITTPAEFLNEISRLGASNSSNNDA
The test can be described thus: pull-down.

B1: GST-Sed5 cytoplasmic domain (domain or fragment, S. cerevisiae, UniProt Q01590 1-319, looked up)
chain: MNIKDRTSEFQQSVLSYKKRNKNFREQQRERLQEKESENFANNTTGNGKSVSEFQKKASGIAHEISSTAQLLSKLAVLAKRKPMFNDNPVEIAELSFLIKRKIYAIEQSLVQLSQLKKTDVNGNTSNQSSKQPSAVQHSKNVVNLLNTQMKNISGSFKDVLEERQRLEMANKDRWQKLTTDTGHAPADDQTQSNHAADLTTYNNSNPFMTSLLDESSEKNNNSSNQGELSFPQNDSQLMLMEEGQLSNNVYLQERNRAVETIESTIQEVGNLFQQLASMVQEQGEVIQRIDANVDDIDLNISGAQRELLKYFDRIKSNR
Consider B1, for which the binding result was “binds”.
